According to US9199028B2, “Use of entrained neutrophils to treat metastatic and micrometastatic disease in at risk patients” (MEMORIAL SLOAN-KETTERING CANCER CENTER, priority 2010, dated 2015):
Entries after “also recorded” stand apart in the source; their conditions may differ.

Legend:
neutrophils = experiment: In vivo rhG-CSF administration (neutrophil mobilization and lung sequestration); set-up: species or system mouse; conditions: mice
Method: Mice were orthotopically injected with 5×10^6 luciferase labelled 4T1 cells. 24 hours later Apocynin (2.4 g/liter) was administered in sugar sweetened drinking water. Control animals were treated with sugar sweetened water. Drinking water for both Apocynin treated and control mice were replaced every two days. Time-Lapse Microscopy 20,000 4T1 cells were labelled with CellTracker-Red (molecular Probes) according to the manufacturer instructions and plated on a chamber slide. 4 hours later, 400,000 neutrophils, isolated from 4T1 tumour-bearing Balb/c Ube-GFP mice, were added to the culture. Live imaging of Caspase 3 activation was done by labelling the tumour cells with the Caspase 3 substrate NucView 488 (Biotium) prior to the addition of GFP negative TENs. Images were taken every 10 minutes using the MetaMorph imaging system. Neutrophil Transfer Female nude mice were injected with 5×10^4 luciferase labelled 4T1 cells to the tail vein. 4 hours later, the mice were injected with 5×10^6 TENs or G-CSF mobilized neutrophils into the tail vein. Control mice were injected with vehicle. Formation of lung metastases was monitored using the IVIS-200 optical in vivo imaging system. Chemokine Administration rhG-CSF (Neupogen, Amgen) was administered daily (250 microg/kg/day) s.c. for 4 consecutive days. In vitro neutrophil stimulation—neutrophils were isolated from naïve mice and co-cultured with tumour cells in the presence of mCCL2, mCCL5 (both from R&D) or rhG-CSF (all at 20 ng/ml) or with TGF-Beta (R&D) (up to 200 pMolar). Human neutrophils purified from healthy volunteers were stimulated in vitro with hCCL2, hCCL5, hCCL3, hCCL4, hCXCL1, hCXCL12 and hCXCL16 (all from R&D at 100 ng/ml) or with rhG-CSF (20 ng/ml). Statistical Analysis For statistical analysis, the data is presented as mean±SEM and were analyses using Students t tests. Differences were considered significant when p<0.05.
In vivo administration of Apocynin: Mice were orthotopically injected with 5×10^6 luciferase labelled 4T1 cells. […] Formation of lung metastases was monitored using the IVIS-200 optical in vivo imaging system. […]

4T1 cells = experiment: In vitro killing assay: naïve mouse neutrophils co-cultured with luciferase labelled 4T1 cells in the presence of chemokines; assay type: cell-based; conditions: naïve mouse neutrophils co-cultured with 4T1 cells, chemokine 20 ng/ml, overnight
Description: Antibodies used for immunohistochemistry—MMP9, F4/80 and CCR2 (all from AbCam), Myeloperoxidase (Dako), Ly-6G and Cd11b (both from BD), and Cleaved Caspase 3 (Cell signalling). Antibodies used for western blotting—Actin (Sigma), CCL2 (AbCam) and CCL5 (R&D) p-SMAD2 (cell signalling). Antibodies used for FACS analysis FITC-Ly-6G, FITC-Cd11b, FITC-F4/80, FITC-Cd34 and FITC-c-Kit (all from BD) and VEGFR1-AP (R&D). Neutrophil Depletion Neutrophil depletion was achieved using daily IP injections of 12.5 μg Rat anti-Gr-1 antibody (BD) or Rat anti-Ly-6G antibody (BD) starting on day 3 post tumour engraftment. Starting on day 14, neutrophil depleting antibodies were administered twice daily. Control mice were injected with […] Rat isotype control (BD). Neutrophil depletion was monitored by manual blood differentials and FACS analysis. Flow Cytometry Peripheral blood was collected into EDTA-coated tubes, washed and resuspended in FACS buffer solution (PBS, 2% heat-inactivated FCS, 5 mM EDTA, and 0.02% sodium azide). The samples were blocked with […] and then incubated with fluorophore-conjugated antibodies. Erythrocytes were then lysed with FACS lysing solution (BD Biosciences) and the cell suspensions were analyzed on a FACSCalibur (BD Biosciences). Colony Formation Assay Female nude mice were orthotopically injected with 5×10^6 puromicin resistant 4T1 cells. On days 7 and 14 post tumour engraftment the mice were sacrificed and perfused with PBS. The lungs and livers were removed, washed with PBS and dissociated with Collagenase A (Roche). The single cell suspension was then plated onto puromicin containing media and selected for 14 day. Colonies were stained with Methylene-Blue and counted manually. Mouse Neutrophil Purification Whole blood was collected by cardiac puncture using heparinized (Sigma) syringe. The blood was diluted with 5 volumes of PBS containing 0.5% BSA and subjected to a discontinuous Histopaque (Sigma) gradient (1.077 and 1.119). Neutrophils were collected from the 1.077-1.119 interface, lymphocytes and monocytes collected from the plasma-1.077 interface. RBCs were eliminated by hypotonic lysis. The cells were washed twice with PBS-BSA and re-suspended in OptiMEM (Invitrogen) 0.5% FBS in a final concentration of 2×10^6 cells/ml. Neutrophil purity and viability were determined visually and were consistently >98%. Human Neutrophil Purification As part of a Memorial Sloan-Kettering Cancer Center institutionally approved protocol, blood samples (˜10 cc) were collected from healthy volunteers or from patients who were already having blood drawn for pre-surgical testing. Patients were consented accordingly as part of the approved protocol. […] Patients had either mastectomies or lumpectomies planned and had blood drawn prior to definitive surgical removal of their primary tumor or chemotherapy. Blood samples were transferred to the lab for analysis no more than 1 hour post-blood draw. Heparinzed blood (20 U/ml final) was mixed with an equal volume of Dextran 500 (3% in saline) and incubated 30 minutes at room temperature. The leukocyte-rich supernatant was layered on top of histopaque 1077 (Sigma) and centrifuged. Neutrophils, collected in the pellet fraction, were resuspended in 10 ml 0.2% NaCl for 30 seconds to remove contaminating erythrocytes. Isotonicity was restored by the addition of 10 ml 1.6% NaCl. Neutrophils were than washed three times in Hanks's balanced salt solution and resuspended in RPMI+FCS2%. In vitro Killing Assay Luciferase labelled cells (5,000/well) were plated on a 96-well, flat bottom white polystyrene tissue culture plate in OptiMEM 0.5% FBS (mouse neutrophils) or RPMI 2% FBS (human neutrophils). 4 hours later, purified neutrophils (100,000/well for mouse neutrophils and 5000 for human neutrophils) were added to the plated tumour cells and co-cultured overnight. […]

B1: rhG-CSF: recombinant methionyl human granulocyte colony-stimulating factor (Neupogen, Amgen) (protein, chains of the INN, looked up)
chain: MTPLGPASSLPQSFLLKCLEQVRKIQGDGAALQEKLCATYKLCHPEELVLLGHSLGIPWAPLSSCPSQALQLAGCLSQLHSGLFLYQGLLQALEGISPELGPTLDTLQLDVADFATTIWQQMEELGMAPALQPTQGAMPAFASAFQRRAGGVLVASHLQSFLEVSYRVLRHLAQP
modifications: N-terminal methionine
circulating neutrophils after rhG-CSF administration (neutrophils; 250 μg/kg/day s.c.): significant increase in circulating and lung-associated neutrophils; also recorded: significant increase in circulating and lung-associated neutrophil numbers
increase of circulating neutrophil numbers (neutrophils; 250 ug/kg/day s.c. for 4 consecutive days): 2-4 fold
lung-associated neutrophils (Ly-6G or myeloperoxidase immunohistochemistry) (neutrophils; rhG-CSF administration): increase in lung-associated neutrophils
neutrophil mediated killing of 4T1 cells (tumor cell viability by luciferase activity) (4T1 cells): does not induce neutrophil mediated cell killing; also recorded: does not induce a cytotoxic neutrophil response; also recorded: did not induce a cytotoxic neutrophil response in vitro
neutrophil mediated killing of 4T1 cells (tumor cell viability by luciferase activity) (4T1 cells; listed as G-CSF): no significant effect on tumor-cell viability
